Measurements as given in paper PMC3817407.

B1: AS22_4450 (protein)
chain: MELDDMKHAWQTLEQRLDQQAAQTGQLLGVVHEETVRSSLRPLWVAQTAQLLCALALAIVSARSWIPHTDQPVAVIGGVLLQAWCMALAISAMVQLQLLTQFNVAGPLLRTQHALARLRRWRTRVAPWLGVAFWVLWIAVADALWRALTGQTLPTDWLVLNLLVGVAGGIGTWLGFRRLQRAQHPWLERIDRAHAGTGVIRAERMLEEIARFQRD
B2: AS16_3622 (protein)
chain: MMKTDELISLLATAEGPVDRHALARRLGLALLAGLLGALLLTVALYGVRSDLAEVARTPLFWAKVALPTSLALLGLWLTQRLARPGVRGGALWGLLGVPLLLVWLGAAISLFGAPPEARADLIFGRTWRTCALNITLLSTPVFIAVFWALRGLAPTRLRQAGAAGGLLAGSTATLVYCLHCPEMGVPFWGLWYLLGMLVPTLLGAVLGPRLLRW
B3: AS16_973 (protein)
chain: MKTDDLIALLAAGEGPVPRHAVGRRMAVAALGGLTAALLLTITLYGVRSDITEVAQTPLFWGKVAFPTSLALIGLWLTSRLARPGGKGAAGWKMLGLPLLLVWCGAAVSIAGAPVDARADLLFGRTWRTCALNIALLSVPAFVTVFWALKGLAPTRLRLAGAAGGLLAGSSATVAYCLHCPEMGVPFWGVWYVLGMLVPTVLGAWWGPRMLRW
B4: AS02_915 (protein)
chain: MEKTGQEWVSASVDGETDRQTLAELAADTDSHAKWQRYHLMGDAMRDELPQAMPLDLSARIAAALEDEPTILAPKVEREATQAPSRAVVVPFMRQLGQYGIAAAVALMAVVGVQNYQSTQDDAPLPVLNTRPLVGTATPVSLQTGPVANQNQGNANDQLLEQRRRINAYLQDHMLQQRLNTGAVVDDNSEVTPIPVNR
B5: AS20_992 (protein)
chain: MTPERFVHLADAYGADLQRWPSAERAAAQALLDCGDAQAVAALRQAHWLDSQLDRYQVPAPSPALAQRIIAAAQQPGAPFWSRYAGWLASLGWVGVGLTGVAAGMLAVALSLPLSTSAEALPSVFDQSDAEFVLSINAEEAEQ
B6: AS25_1643_cl43 (protein)
chain: MTTDSNFNDPCRRQFSRDLPQKMARHTNEATGAMDMVKRDRFELLSAYLGGEVTAAERRQVEDWPANDVAVQRLYSRLLKLRQGIRTMPIPTAQQSPETTAEQVFAKVNRRSRLAWKLGGAAVAACVIGAVTNWLPGRQTGIPQLAQQPQEQPTQAVTTPDALPMIALNNPVIEIPKAAVASPTKFIQPQPQLGEIPPDIN
B7: AS22_1147 (protein)
chain: MELDDIAVAWRSLEQRLDQHAALAGQVLGDLRSHAARAHLRPLWLSQSAQLLCAIALSGLVAHSWLAFPEQAAAIVGGVLLQIWCVALAASAARQLWLLSQLDFARPLLQTQRALAQLRRWRTRVAPWLGVAFWVLWVAVADAAWRALTGRSLPYAWLLCNLLVGVLGGIGTWLGYRRLQRSGHPWLERLDTVHAGRSVARTETLLEQIARFQRE

Columns and labels:
ECF38_1322 = molecular target: T1, ECF38_1322
T1 chain: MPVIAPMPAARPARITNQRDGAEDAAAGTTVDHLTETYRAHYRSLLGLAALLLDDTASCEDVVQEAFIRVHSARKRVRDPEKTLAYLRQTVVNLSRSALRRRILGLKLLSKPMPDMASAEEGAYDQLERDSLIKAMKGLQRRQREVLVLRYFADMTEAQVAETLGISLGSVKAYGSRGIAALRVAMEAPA

ECF03_1198 = molecular target: T2, ECF03_1198
T2 chain: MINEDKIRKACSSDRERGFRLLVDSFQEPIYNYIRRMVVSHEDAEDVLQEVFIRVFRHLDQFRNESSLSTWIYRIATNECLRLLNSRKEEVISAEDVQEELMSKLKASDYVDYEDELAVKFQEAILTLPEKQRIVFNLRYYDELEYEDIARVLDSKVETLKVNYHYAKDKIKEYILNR

ECF27_4265 = molecular target: T3, ECF27_4265
T3 chain: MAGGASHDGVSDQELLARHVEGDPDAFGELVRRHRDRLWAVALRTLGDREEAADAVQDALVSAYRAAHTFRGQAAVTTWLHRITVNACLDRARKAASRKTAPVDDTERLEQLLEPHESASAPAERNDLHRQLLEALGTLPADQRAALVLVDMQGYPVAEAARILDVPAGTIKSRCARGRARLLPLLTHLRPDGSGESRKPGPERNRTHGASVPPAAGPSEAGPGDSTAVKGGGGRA

ECF04_1609 = molecular target: T4, ECF04_1609
T4 chain: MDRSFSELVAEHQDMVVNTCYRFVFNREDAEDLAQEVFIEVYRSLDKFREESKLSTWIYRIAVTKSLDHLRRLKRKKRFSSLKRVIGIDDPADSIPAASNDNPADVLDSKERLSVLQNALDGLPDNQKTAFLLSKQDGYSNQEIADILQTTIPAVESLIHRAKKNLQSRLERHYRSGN

ECF37_2513 = molecular target: T5, ECF37_2513
T5 chain: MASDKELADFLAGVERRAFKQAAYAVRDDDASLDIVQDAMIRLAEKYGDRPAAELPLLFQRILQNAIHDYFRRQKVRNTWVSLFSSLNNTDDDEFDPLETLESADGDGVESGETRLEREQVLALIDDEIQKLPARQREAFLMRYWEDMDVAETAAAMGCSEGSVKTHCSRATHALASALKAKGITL

ECF11_3726 = molecular target: T6, ECF11_3726
T6 chain: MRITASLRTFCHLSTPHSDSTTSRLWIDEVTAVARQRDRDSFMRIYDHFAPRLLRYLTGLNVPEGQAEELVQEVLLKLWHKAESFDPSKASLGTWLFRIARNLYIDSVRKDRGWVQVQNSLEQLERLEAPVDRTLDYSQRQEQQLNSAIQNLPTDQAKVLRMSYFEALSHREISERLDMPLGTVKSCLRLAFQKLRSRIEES

ECF22_1147 = molecular target: T7, ECF22_1147
T7 chain: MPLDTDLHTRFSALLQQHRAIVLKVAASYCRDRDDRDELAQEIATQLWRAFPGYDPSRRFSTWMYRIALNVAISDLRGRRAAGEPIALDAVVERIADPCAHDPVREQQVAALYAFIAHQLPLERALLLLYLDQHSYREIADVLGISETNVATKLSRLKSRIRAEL

ECF34_1384 = molecular target: T8, ECF34_1384
T8 chain: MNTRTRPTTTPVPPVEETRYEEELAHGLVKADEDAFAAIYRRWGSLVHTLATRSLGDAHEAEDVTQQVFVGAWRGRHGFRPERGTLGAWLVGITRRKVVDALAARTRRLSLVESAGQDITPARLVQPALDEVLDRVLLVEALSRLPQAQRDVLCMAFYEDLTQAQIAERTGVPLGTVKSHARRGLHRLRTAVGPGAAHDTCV

ECF35_3582 = molecular target: T9, ECF35_3582
T9 chain: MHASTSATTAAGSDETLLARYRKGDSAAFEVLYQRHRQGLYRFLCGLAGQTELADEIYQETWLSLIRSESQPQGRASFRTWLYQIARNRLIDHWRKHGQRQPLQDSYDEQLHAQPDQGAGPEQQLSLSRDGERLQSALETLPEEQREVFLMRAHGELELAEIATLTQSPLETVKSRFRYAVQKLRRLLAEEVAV

ECF33_375 = molecular target: T10, ECF33_375
T10 chain: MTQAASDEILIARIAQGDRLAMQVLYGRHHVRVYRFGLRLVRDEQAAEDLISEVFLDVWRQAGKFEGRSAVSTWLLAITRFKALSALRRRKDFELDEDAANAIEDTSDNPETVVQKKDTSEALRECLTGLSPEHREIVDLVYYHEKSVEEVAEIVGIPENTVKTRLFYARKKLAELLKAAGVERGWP

ECF16_973 = molecular target: T11, ECF16_973
T11 chain: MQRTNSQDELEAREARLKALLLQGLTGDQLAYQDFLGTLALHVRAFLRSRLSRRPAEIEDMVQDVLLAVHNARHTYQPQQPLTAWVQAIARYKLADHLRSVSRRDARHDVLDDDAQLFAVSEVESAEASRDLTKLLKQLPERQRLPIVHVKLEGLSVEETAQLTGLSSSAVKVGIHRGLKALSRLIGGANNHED

ECF14_3200 = molecular target: T12, ECF14_3200
T12 chain: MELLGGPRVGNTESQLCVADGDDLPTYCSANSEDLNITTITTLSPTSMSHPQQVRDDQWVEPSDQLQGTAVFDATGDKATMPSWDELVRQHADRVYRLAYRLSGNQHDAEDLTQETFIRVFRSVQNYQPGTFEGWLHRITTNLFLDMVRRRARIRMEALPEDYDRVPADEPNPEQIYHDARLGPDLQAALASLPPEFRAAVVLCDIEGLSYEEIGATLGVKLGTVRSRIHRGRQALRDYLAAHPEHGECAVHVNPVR

ECF03_1244 = molecular target: T13, ECF03_1244
T13 chain: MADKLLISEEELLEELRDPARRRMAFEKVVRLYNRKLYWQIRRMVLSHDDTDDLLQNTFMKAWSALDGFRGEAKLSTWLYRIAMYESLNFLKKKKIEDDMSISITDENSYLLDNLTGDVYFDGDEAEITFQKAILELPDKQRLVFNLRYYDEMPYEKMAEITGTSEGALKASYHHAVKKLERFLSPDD

| Binder | fold repression (ECF38_1322) | fold repression (ECF03_1198) | fold repression (ECF27_4265) | fold repression (ECF04_1609) | fold repression (ECF37_2513) | fold repression (ECF11_3726) | fold repression (ECF27_1331) | fold repression (ECF22_1147) | fold repression (ECF34_1384) | fold repression (ECF35_3582) | fold repression (ECF33_375) | fold repression (ECF16_973) | fold repression (ECF14_3200) | fold repression (ECF03_1244) |
| --- | --- | --- | --- | --- | --- | --- | --- | --- | --- | --- | --- | --- | --- | --- |
| B1 | 1.78 | 2.46 | 1.4 | 1.43 | 1.51 | 1.93 | 1.37 | 5.73 | 1.66 | 1.35 | 1.4 | 1.71 | 1.94 | 1.75 |
| B2 | 2.34 | 2.71 | 1.45 | 1.95 | 4.97 | 6.84 | 3.55 | 8.27 | 2.8 | 1.67 | 1.17 | 131 | 8.73 | 2.09 |
| B3 | 0.629 | 0.72 | 0.412 | 0.632 | 1.04 | 1.29 | 0.929 | 1.2 | 0.757 | 0.722 | 0.373 | 58.6 | 0.918 | 0.783 |
| B4 | 2.24 | 3.28 | 2.08 | 3.74 | 2.48 | 7.44 | 4.27 | 4.49 | 3.28 | 2.65 | 2.44 | 3.34 | 6.23 | 3.01 |
| B5 | 1.72 | 1.53 | 1.1 | 1.95 | 1.98 | 1.91 | 2.11 | 2.47 | 1.64 | 1.6 | 1.04 | 1.7 | 2.04 | 1.39 |
| B6 | 0.931 | 1.92 | 0.954 | 2.44 | 1.9 | 4.29 | 1.96 | 5.45 | 2.43 | 1.57 | 0.709 | 1.22 | 5.41 | 1.06 |
| B7 | 1.99 | 2.82 | 1.86 | 3.52 | 3.66 | 3.72 | 3.07 | 6.19 | 2.09 | 1.94 | 1.26 | 2.57 | 5.04 | 3.22 |
